Data published in article PMC8557155 (Annals of Nuclear Medicine, 2021).

Legend:
[1] = parameters: species or system human (Japanese patients); details: in vivo
Protocol: Image processing and radioactivity quantification were performed by a nuclear medicine expert at site, and dosimetry calculation was performed by the sponsor of the study. All images were taken using the Symbia T-16 SPECT/CT scanner (Siemens). The dual-headed gamma camera was equipped with a 0.952-cm (0.375-in)-thick NaI crystal and a medium-energy low penetration collimator. An energy window of ± 10% was applied around the one dominant gamma ray energies of ^177Lu (208 keV). The matrix size was 256 × 1024. […] Radioactivity quantification was performed on patient images, and the geometric mean was calculated. Regions of interests (ROIs) were drawn around the kidneys, liver, spleen, other organs, and whole body on the planar images. Tumor tissue within the organs was excluded. The absorbed dose to each organ was estimated using the OLINDA/EXM 1.0 (Vanderbilt University), a software based on the Medical Internal Radiation Dose algorithm, which is widely used for established beta and gamma emitting radionuclides. The biological effective dose (BED) for the kidneys were estimated using the SAS software, version 9.4 (SAS Institute).

[2] = in vivo; cited from earlier work
[3] = in vivo; cited from earlier work; remark: listed apart in the source
Source text: This study is the first clinical trial on ^177Lu-DOTATATE for unresectable NETs in Japan. At 29.6 GBq, the absorbed dose to the kidney and red bone marrow was 16.8 Gy and 0.722 Gy, respectively. These values were lower than the reported threshold dose for the kidney (23 Gy) and the red bone marrow (2 Gy). The calculated absorbed doses to the kidney, spleen, red bone marrow, and liver were 0.568, 0.559, 0.0244 and 0.247 mGy/MBq, respectively, in this study. We compared the calculated absorbed dose to each organ with previously published studies in Caucasian populations. […] In this study, the primary lesions were located in the pancreas, stomach, and rectum. Therefore, many patients underwent pancreatectomy and colectomy before enrollment in the study; diarrhea is likely to occur more in such patients compared to primary midgut cases because pancreatic enzyme deficiency o ...

## C[C@@H](O)[C@H](NC(=O)[C@@H]1CSSC[C@H](NC(=O)[C@@H](Cc2ccccc2)NC(=O)CN2CCN(CC(=O)O)CCN(CC(=O)O)CCN(CC(=O)O)CC2)C(=O)N[C@@H](Cc2ccc(O)cc2)C(=O)N[C@H](Cc2c[nH]c3ccccc23)C(=O)N[C@@H](CCCCN)C(=O)N[C@@H]([C@@H](C)O)C(=O)N1)C(=O)O [177Lu-DOTATATE, ^177Lu-DOTA^0-Tyr^3-octreotate, metal not drawn]
[1]
  BED for the kidneys for 7.4 GBq, max: 5.38 Gy/7.4 GBq
  BED for the kidneys for 7.4 GBq, mean: 4.25 Gy/7.4 GBq
  BED for the kidneys for 7.4 GBq, min: 3.04 Gy/7.4 GBq
  BED for the kidneys for 29.6 GBq, max: 21.5 Gy/29.6 GBq
  BED for the kidneys for 29.6 GBq, mean: 17.0 Gy/29.6 GBq
  BED for the kidneys for 29.6 GBq, median: 17.2 Gy/29.6 GBq
  BED for the kidneys for 29.6 GBq, min: 12.2 Gy/29.6 GBq
  BED for the kidneys, max: 0.727 mGy/MBq
  BED for the kidneys, mean: 0.574 mGy/MBq
  BED for the kidneys, median: 0.580 mGy/MBq
  BED for the kidneys, min: 0.411 mGy/MBq
  Effective radioactivity in the kidney at 1 h: 2.39 ± 0.535%
  Effective radioactivity in the liver at 1 h: 4.97 ± 2.01%
  Effective radioactivity in the spleen at 1 h: 0.812 ± 0.405%
  Fraction of the effective radioactivity retained in the whole body at 1 h: 71.4 ± 4.9%
  Fraction of the effective radioactivity retained in the whole body at 4 h: 39.5 ± 5.7%
  Fraction of the effective radioactivity retained in the whole body at 24 h: 16.0 ± 3.5%
  Fraction of the effective radioactivity retained in the whole body at Day 6: 5.8 ± 1.3%
[2]
  Absorbed dose to the spleen: 0.645 mGy/MBq
[3]
  Diarrhea, frequency: 28.8%
  Severe renal toxicities, frequency: 0.9%
